Results taken from the supplement of paper PMC10724198.
± gives the standard deviation of the averaged measurements.

Tested on: Saccharomyces cerevisiae
Test: protein stability index of tFT-peptide fusion (C-terminal peptide) (PSI (0-1 scale)); higher = more stable (slower turnover)
Details: genetic background: wild type; temperature: 30 C
Method: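 Multiplexed protein stability (MPS) profiling in S. cerevisiae. Random 12-aa peptides (tFT-X12 library) are fused to the C-terminus of a sfGFP-mCherry tandem fluorescent timer, after mCherry and a GGGS linker. Cells are FACS-sorted into 8 mCherry/sfGFP bins and deep-sequenced. The protein stability index (PSI) is the read-weighted bin average, scaled from 0 (unstable) to 1 (stable). Only peptides with >10 reads are reported; cells were grown at 30 °C in SC-His with glucose.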
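Note: PSI is a weighted mean of sequencing reads over stability bins, variants kept only with over 10 reads, mCherry proximal and sfGFP distal, peptide attached via GGGS linker.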

Sequence | protein stability index
GCFFQPRWSLLS | 0.599 ± 0.0088
GCFLDLVFRSRI | 0.668 ± 0.0074
GCFLRHAPALRF | 0.735 ± 0.063
GCGSYELLRSAS | 0.68 ± 0.012
GCLDGLGLPCLS | 0.681 ± 0.079
GCLGDRVKSPIV | 0.638 ± 0.068
GCPHGTLFVSLE | 0.699 ± 0.065
GCRARKSRRTPT | 0.664 ± 0.011
GCRCWGVRVGCV | 0.5407 ± 0.003
GCRGEWGWVGRG | 0.691 ± 0.017
GCSCFLAGAFVL | 0.732 ± 0.038
GCSQGGRRSGNE | 0.644 ± 0.029
GDFFQRVVGGGG | 0.733 ± 0.16
GDFFVGLEWRDI | 0.622 ± 0.13
GDFILLCDFDPI | 0.712 ± 0.09
GDFSLCPMFCAP | 0.677 ± 0.071
GDGSNVSLFILF | 0.784 ± 0.13
GDGWLSGVPEEL | 0.74 ± 0.017
GDKKYRYGNKVF | 0.737 ± 0.086
GDRRRVFGSEQR | 0.662 ± 0.088
GDYKESAFRMDG | 0.761 ± 0.043
GEAWWLRGGGER | 0.757 ± 0.03
GEEGRNEQKQDA | 0.7249 ± 0.0011
GEGERVCVGSEF | 0.745 ± 0.033
GEGLWGGRGRRW | 0.687 ± 0.046

Sequence | protein stability index
GEGPTGAKQDYV | 0.6239 ± 0.0023
GEGRGLCNLVAG | 0.65 ± 0.025
GEGTERLGKSTR | 0.651 ± 0.046
GEKQVDGGDGQR | 0.6985 ± 0.0012
GEKREGRKTRRD | 0.608 ± 0.046
GERDWRAKRTRE | 0.692 ± 0.055
GERGGKGHEQGL | 0.623 ± 0.043
GERWSGVGEWVW | 0.739 ± 0.014
GESRDEGRGVRA | 0.638 ± 0.069
GEVIAYGSAWGL | 0.647 ± 0.014
GEWGRVGVPGCS | 0.718 ± 0.043
GEWRFCLGYRRR | 0.647 ± 0.018
GFCCPMFLALFS | 0.587 ± 0.022
GFCRWVRRDDCI | 0.693 ± 0.032
GFCTVVGGVVIG | 0.7202 ± 0.0016
GFFGDFIVFDFS | 0.777 ± 0.022
GFGFLQIVSGWL | 0.608 ± 0.067
GFGGWIVCLGGG | 0.669 ± 0.0096
GFGSEGQDMVGL | 0.6658 ± 0.0027
GFGSTTTRLALV | 0.662 ± 0.13
GFGVAGLVGKGV | 0.662 ± 0.053
GFIYRLCRISIP | 0.635 ± 0.025
GFKEGRSYWRFY | 0.74 ± 0.034
GFLIGRLGEGSG | 0.728 ± 0.023
GFLPCKVVRTCV | 0.549 ± 0.055

Sequence | protein stability index
GFLPSIVPPVPR | 0.753 ± 0.02
GFLPVQGQGLVD | 0.688 ± 0.045
GFRVSVGVVEGG | 0.6716 ± 0.0056
GFSLSGRFFLRC | 0.708 ± 0.013
GFSNKKNVPLTR | 0.568 ± 0.066
GFSSVILMHMPC | 0.7534 ± 0.0048
GFVFSRGLERPL | 0.675 ± 0.062
GFVPGGGGRSSV | 0.681 ± 0.0092
GFVRGDRSGGGG | 0.72 ± 0.0085
GFVVCVFPLLLP | 0.563 ± 0.029
GFWGSRTSGSIP | 0.7335 ± 0.007
GGAEACSDRGGG | 0.704 ± 0.018
GGAEGLHVRDVV | 0.722 ± 0.051
GGAGGGVWGGGV | 0.735 ± 0.014
GGAGGHCSHEWS | 0.728 ± 0.039
GGAMYVSFFDKF | 0.68 ± 0.021
GGARESGRVEQV | 0.676 ± 0.011
GGARPVWDPGFG | 0.684 ± 0.0031
GGCGGVWGACVV | 0.709 ± 0.023
GGCVTRYSSQRA | 0.656 ± 0.041
GGCVVGTGRRRY | 0.6114 ± 0.0061
GGDAGGVFSRLC | 0.632 ± 0.0096
GGDGGSDHHRER | 0.6856 ± 0.0044
GGEGGRALGVGR | 0.673 ± 0.028
GGEGLRGAAWGI | 0.653 ± 0.12

Sequence | protein stability index
GGEICPARECGA | 0.648 ± 0.042
GGFGAVPEVRAR | 0.725 ± 0.035
GGFICRHGVGRG | 0.708 ± 0.011
GGFLMVSPMDWA | 0.703 ± 0.026
GGFTSIRLTHLS | 0.698 ± 0.043
GGGAFVGLDFGG | 0.684 ± 0.0071
GGGAGGAVRRAS | 0.6932 ± 0.005
GGGAGGGGRRGR | 0.747 ± 0.01
GGGAGRSWFVGC | 0.711 ± 0.042
GGGARPTLDRAR | 0.637 ± 0.028
GGGAWGGMCGVV | 0.717 ± 0.047
GGGDGIHRYAGG | 0.7 ± 0.035
GGGERCEGVWVE | 0.579 ± 0.01
GGGEWGLGVRPR | 0.725 ± 0.008
GGGGEVARSAHR | 0.6696 ± 0.0056
GGGGGERGRGGS | 0.708 ± 0.02
GGGGGGLTGRVG | 0.711 ± 0.009
GGGGGSSWVGYG | 0.8981 ± 0.0027
GGGGGWGGGGGG | 0.7 ± 0.087
GGGGHMGGRLVK | 0.692 ± 0.039
GGGGKGTSGQGR | 0.688 ± 0.017
GGGGLDGYGGGG | 0.69 ± 0.029
GGGGLGWWEWDR | 0.736 ± 0.071
GGGGPGGLVGAA | 0.662 ± 0.035
GGGGSRRGVGDR | 0.687 ± 0.013

Sequence | protein stability index
GGGGTGTSGQGR | 0.718 ± 0.046
GGGIVGWFCRGR | 0.675 ± 0.068
GGGLGGGGGVWG | 0.7104 ± 0.004
GGGLGGVRGGVR | 0.628 ± 0.074
GGGLMVARFGPS | 0.664 ± 0.037
GGGLREARVLRG | 0.711 ± 0.015
GGGLSGEGGLGR | 0.639 ± 0.014
GGGLWLYKKLVF | 0.682 ± 0.13
GGGNEDCLRGGY | 0.651 ± 0.056
GGGNGGTGCDWG | 0.629 ± 0.018
GGGPWGRVGRGG | 0.679 ± 0.037
GGGRALEGAAGP | 0.583 ± 0.063
GGGRGGGGGGDA | 0.697 ± 0.038
GGGRGLRCNGLG | 0.738 ± 0.1
GGGRGNRGEKMT | 0.67 ± 0.012
GGGRGRAGVGVW | 0.714 ± 0.05
GGGVGASMSGTP | 0.689 ± 0.0069
GGGVGEWCLVRL | 0.6849 ± 4.4e-05
GGGVWQWERGRG | 0.811 ± 0.14
GGGWCSGYLAGV | 0.679 ± 0.056
GGGWSRGGSGAG | 0.687 ± 0.011
GGIPINVLPGCR | 0.739 ± 0.15
GGLGVGPGWWGP | 0.733 ± 0.043
GGLGWGARQGAL | 0.68 ± 0.024
GGLICRHGGGRG | 0.706 ± 0.02

Sequence | protein stability index
GGLWAAAGKARV | 0.692 ± 0.026
GGNDIIQNRKGK | 0.674 ± 0.039
GGNGIVPVWMNF | 0.695 ± 0.041
GGPAWGRVGMYW | 0.666 ± 0.047
GGPVGGGGGSGE | 0.641 ± 0.032
GGQGKWPGTPLL | 0.738 ± 0.022
GGRCGREGGAER | 0.61 ± 0.054
GGRCWMCVAVTE | 0.591 ± 0.019
GGRGGATRRGSL | 0.764 ± 0.055
GGRGGEVVLWQA | 0.726 ± 0.12
GGRGREGRPPGP | 0.641 ± 0.034
GGRNGLGITGGE | 0.648 ± 0.034
GGRRLKDAETWA | 0.615 ± 0.029
GGRRTEIYTGPA | 0.703 ± 0.019
GGRVWAGGYLGA | 0.707 ± 0.068
GGRWGDSGMGVV | 0.715 ± 0.026
GGSCGFGLGAGG | 0.665 ± 0.041
GGSDLLIGFWPC | 0.716 ± 0.027
GGSGPSGSPRRR | 0.727 ± 0.054
GGSSLSSSSVIR | 0.675 ± 0.036
GGSSWSLGGGGG | 0.7406 ± 0.0023
